Experimental data as given in PMC12922752 (Science Advances, 2026).
Values belong to the molecule of their own block, whether it stands above or below them.

Assays:
[1] = molecular target: Rpn1, human, recombinant full-length (human) (UniProt Q13200); experiment: ITC
[2] = molecular target: Hsp70 nucleotide-binding domain (Hsp70NBD); experiment: ITC
[3] = molecular target: Rpn1, human, recombinant full-length (human, UniProt Q13200 1-908); experiment: cross-linking
Chain of Rpn1, human, recombinant full-length (Q13200 whole entry): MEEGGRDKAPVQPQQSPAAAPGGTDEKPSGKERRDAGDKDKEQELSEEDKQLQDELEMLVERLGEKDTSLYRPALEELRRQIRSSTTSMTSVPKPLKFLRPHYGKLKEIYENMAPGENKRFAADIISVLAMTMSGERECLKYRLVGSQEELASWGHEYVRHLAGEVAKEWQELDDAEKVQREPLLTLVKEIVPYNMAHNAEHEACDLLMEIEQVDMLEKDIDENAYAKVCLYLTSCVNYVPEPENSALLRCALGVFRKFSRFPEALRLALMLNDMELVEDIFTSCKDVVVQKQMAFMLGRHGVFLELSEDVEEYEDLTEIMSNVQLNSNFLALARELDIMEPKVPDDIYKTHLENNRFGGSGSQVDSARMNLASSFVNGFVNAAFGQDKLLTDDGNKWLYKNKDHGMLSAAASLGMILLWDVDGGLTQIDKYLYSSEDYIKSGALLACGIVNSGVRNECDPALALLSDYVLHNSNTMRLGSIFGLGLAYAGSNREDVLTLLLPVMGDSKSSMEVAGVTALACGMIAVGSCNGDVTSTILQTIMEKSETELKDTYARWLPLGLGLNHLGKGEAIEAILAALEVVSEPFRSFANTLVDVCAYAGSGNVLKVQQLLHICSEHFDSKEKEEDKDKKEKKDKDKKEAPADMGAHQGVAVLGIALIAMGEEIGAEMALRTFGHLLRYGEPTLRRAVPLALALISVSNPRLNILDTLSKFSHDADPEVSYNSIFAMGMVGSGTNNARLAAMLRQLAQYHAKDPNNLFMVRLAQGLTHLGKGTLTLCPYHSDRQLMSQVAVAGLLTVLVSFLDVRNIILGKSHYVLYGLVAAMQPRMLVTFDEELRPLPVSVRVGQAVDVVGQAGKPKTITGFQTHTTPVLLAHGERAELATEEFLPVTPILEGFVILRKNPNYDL

Chain of Rpn1, human, recombinant full-length (human) (Q13200 whole entry, the tested form may be a part): as the sequence (Q13200 whole entry) above

Kd [1]: 500 nM
Kd [2]: 50 nM
Molecule: Bcl-2-associated anthanogene 1 (Bag1), full-length (natural protein)

binding result [3]: binds
B1: Rpt2 of the ATPase ring isolated from Saccharomyces cerevisiae (natural protein)
chain: MGQGVSSGQDKKKKKGSNQKPKYEPPVQSKFGRKKRKGGPATAEKLPNIYPSTRCKLKLLRMERIKDHLLLEEEFVSNSEILKPFEKKQEEEKKQLEEIRGNPLSIGTLEEIIDDDHAIVTSPTMPDYYVSILSFVDKELLEPGCSVLLHHKTMSIVGVLQDDADPMVSVMKMDKSPTESYSDIGGLESQIQEIKESVELPLTHPELYEEMGIKPPKGVILYGAPGTGKTLLAKAVANQTSATFLRIVGSELIQKYLGDGPRLCRQIFKVAGENAPSIVFIDEIDAIGTKRYDSNSGGEREIQRTMLELLNQLDGFDDRGDVKVIMATNKIETLDPALIRPGRIDRKILFENPDLSTKKKILGIHTSKMNLSEDVNLETLVTTKDDLSGADIQAMCTEAGLLALRERRMQVTAEDFKQAKERVMKNKVEENLEGLYL
